Results published in patent US12459997B2, “Compounds and methods targeting interleukin-19” (Eli Lilly and Company, priority 2018, dated 2025).

T1: recombinant human IL-19 (Homo sapiens, UniProt Q9UHD0)
T1 sequence (Q9UHD0 25-177): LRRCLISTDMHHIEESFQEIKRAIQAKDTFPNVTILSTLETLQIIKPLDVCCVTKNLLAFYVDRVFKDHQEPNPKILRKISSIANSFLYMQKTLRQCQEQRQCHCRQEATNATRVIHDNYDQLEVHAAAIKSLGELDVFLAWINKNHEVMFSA

T2: human IL-19 / human IL-20R beta Fc-fusion protein (Homo sapiens, UniProt Q9UHD0)
T2 sequence (Q9UHD0 25-177): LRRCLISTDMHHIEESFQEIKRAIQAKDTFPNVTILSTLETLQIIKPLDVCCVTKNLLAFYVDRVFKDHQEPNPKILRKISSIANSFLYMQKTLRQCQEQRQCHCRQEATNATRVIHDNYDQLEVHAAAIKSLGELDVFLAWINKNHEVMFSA


What was measured:
recombinant human IL-19 [1] = target: T1, recombinant human IL-19; experiment: Bio-layer interferometry (BLI) binding kinetics and affinity (Octet Red96); conditions: 25° C.; 1:1 binding model
Method: Bio-layer interferometry (BLI) assay, measured with a Octet Red96® instrument available from ForteBio (using HBS-EP+ running buffer (GE Healthcare, 10 mM Hepes pH7.4+150 mM NaCl+3 mM EDTA+0.05% surfactant P20) at 25° C.), is used to measure binding of the exemplified IL-19 antibodies of the present invention to recombinant human IL-19 (having the amino acid sequence set for in SEQ ID NO: 1).
Except as noted, all reagents and materials are from ForteBio (Freemont, Calif.). An AMQ biosensor is used to immobilize antibody of interest for analysis. […] Recombinant human IL-19 is prepared to concentrations of 270, 90, 30, 10, 3.33, 1.11, 0.370, and 0 (blank) nM by dilution into running buffer. Each analysis consists of: (1) capturing antibody samples on biosensors for 300 secs; (2) establishing a baseline by incubating antibody loaded biosensors with running buffer for 60 secs; (3) incubating antibody loaded biosensors with serially diluted recombinant human IL-19 for 300 secs to monitor association phase; (4) return of biosensor to running buffer to monitor dissociation phase.
Binding data is processed using standard double-referencing and fit to a 1:1 binding model using Data Analysis v9.0 evaluation software, to determine the association rate (kon, M^−1 s^−1 units), dissociation rate (koff, s^−1 units), and Rmax (nm units). The equilibrium dissociation constant (KD) was calculated from the relationship KD=koff/kon, and is in molar units.

recombinant human IL-19 [2] = target: T1, recombinant human IL-19; experiment: Binning by cross-competition binding assay (Octet Red96)
Excerpt: Binning experiments involve competing monoclonal antibodies against one another in a pairwise and combinatorial fashion for binding to a specific antigen. A “bin” is a relative concept, based upon the epitope regions represented within the panel of monoclonal antibodies being tested. Two antibodies belong to the same bin if they cannot pair with one another and share the same blocking profile when tested against the other antibodies (or bins of antibodies) in the test panel. Binning of exemplified antibodies of the present invention may be performed by cross-competition binding assays using the Octet Red96®, available from ForteBio, according to manufacturer instruction. Briefly, to determine if two antibodies share overlapping epitope regions, an exemplified antibody is labeled with biotin and captured onto streptavidin sensor tip. The coated biosensor up is then incubated with recombinant human IL-19 to saturate the capture antibody binding sites. The capture antibody-antigen complex is then incubated with a detection antibody. […] Antibodies with a same binding profile are grouped together into the same bin.

[3] = target: T2, human IL-19 / human IL-20R beta Fc-fusion protein; experiment: BLI in vitro neutralization: IL-19 captured by antibody, then incubated with IL-20R beta Fc; conditions: block of IL-19 binding to soluble receptor
Excerpt: Alternatively, a biophysical assay such as bio-layer interferometry (BLI) may be used for assessing neutralization of IL-19 by antibodies of the present invention. Binding between a ligand immobilized on the biosensor tip surface and an analyte in solution produces an increase in optical thickness at the biosensor tip, which results in a wavelength shift (expressed in nm). According to such assay, the IL-19 receptor (i.e., […]) is expressed in a membrane-free manner (such as with an Fc-fusion e.g. IL20Rbeta Fc chimera protein from R&D Systems catalog 1788-IR-050). […] The immobilized antibodies are then incubated with recombinant human IL-19 protein diluted to 100 nM using HBS-EP+ running buffer (GE Healthcare, 10 mM Hepes pH7.4+150 mM NaCl+3 mM EDTA+0.05% surfactant P20) for 240-300 secs. The human IL-19, after binding to the anti-IL-19 antibody, is assessed by incubation with human IL-20R beta Fc-fusion protein for 240-300 secs. The ability of the antibody to block or neutralize binding of the IL-19 ligand to the soluble receptor is observed as a minimal (<0.025 nm) increase in the wavelength during this step of the assay.

recombinant human IL-19 [4] = target: T1, recombinant human IL-19; experiment: PathHunter eXpress IL20RA/IL20RB dimerization assay (cell-based neutralization); parameters: host or cells: PathHunter eXpress IL20RA/IL20RB cells (DiscoverX 93-1027E3) carry the receptor partners; conditions: eight experiments
Excerpt: PathHunter® eXpress IL20RA/IL20RB dimerization assay (DiscoverX product code 93-1027E3) is used to assess ability of exemplified antibodies to prevent binding of human IL-19 recombinant protein in a cell-based assay format. The assay detects ligand induced dimerization of two subunits of a receptor-dimer pair. The cells have been engineered to co-express one receptor subunit fused to enzyme donor and a second dimer partner fused to enzyme acceptor. Binding of an agonist to one receptor subunit induces it to interact with its dimer partner, forcing complementation of the two enzyme fragments resulting in the formation of a functional enzyme that hydrolizes a substrate to generate a chemiluminescent signal. […] Human IL-19 recombinant protein with and without exemplified antibodies mixture is then incubated with cells overnight at 37° C./5% CO2. Substrate buffer is added to cells and incubated at room temperature for 1 hour in the dark before luminescent detection.

| kon (recombinant human IL-19 [1]) [M⁻¹ s⁻¹] | Binning Group (recombinant human IL-19 [2]) | % inhibition +/− SEM (maximum signal inhibition percentage) (recombinant human IL-19 [4]) | Molecule | Neutralization [3] |
| --- | --- | --- | --- | --- |
| 152000 | 4 | – | R_4: rabbit-derived IL-19 antibody; LCVR SEQ ID NO: 58, HCVR SEQ ID NO: 62 (antibody, V domains shown) VH: QCQSVEESGGRLVTPGTPLTLTCTVSGIDLSIYAMGWVRQAPGKGLEYIGIIDTTGTAYYARWAKGRFTISKTSATVALKITSPTTEDTATYFCARDSGSLYYGSYALWGPGTLVTVSS VL: ADVVMTQTPSSVSEPVGGTVTIKCQASQSIYSYLSWYQQKPGQPPKLLIYEASKLASGVPSRFKGSGSGTQFTLTISGVECADAATYYCQQGYSSSNVDNTFGGGTEVVVT | – |
| 33300 | 3 | – | R_1: rabbit-derived IL-19 antibody; LCVR SEQ ID NO: 34, HCVR SEQ ID NO: 38 (antibody, V domains shown) VH: QQLEESGGGLVQPEGSLTLTCTASGFSFSSSYWICWVRQAPGKGLEWLACIDTGVSGDTYYANWAEGRFTISKTSSTTVTLQMTSLTAADTATYFCARDIFGSAIDNSLWGPGTLVTVSS VL: AIDMTQTPASVSEPVGGTVTIKCQASQSISSYLAWYQQKPGQPPKLLIYSASTLASGVPSRFRGSGSGREFTLTISDLECADAATYYCQCHYHGSSYWDNSFGGGTEVVVK | – |
| 428000 | 3 | – | R_2: rabbit-derived IL-19 antibody; LCVR SEQ ID NO: 42, HCVR SEQ ID NO: 46 (antibody, V domains shown) VH: QQLEESGGGLVQPEGSLTLTCTASGFSFSSSYWICWVRQAPGKGLEWLACIDTGVSGDTYYANWAKGRFTISKTSSTTVTLQMTSLTAADTATYFCARDIFGSAIDNSLWGPGTLVTVSS VL: ADVVMTQTPASVEAAVGGTVTIKCQASESIGNALAWYQQKPGQPPKLLIYDASKLASGVPSRFKGSGSGTQFTLTISDLECADAATYYCQCHYHGSSYWDNSFGGGTEVVVK | – |
| 391000 | 3 | – | R_3: rabbit-derived IL-19 antibody; LCVR SEQ ID NO: 50, HCVR SEQ ID NO: 54 (antibody, V domains shown) VH: QCQSLEESGGGLVEPEGSLTLTCKASGFSFSSSYWICWVRQAPGKGLEWIACTDTFSGDTYYASWAKGRFTISKTSSTTVTLRMTSLTDADTATYFCARDIFGTAVHISLWGPGTLVTVSS VL: ADVVMTQTPSSVEAAVGGTVTIKCQASQSIGSSLAWYQQKPGQRPKLLIYGASTLASGVPSRFKGSGSGTEFTLTISDLECADAATYYCQCHYHGSSYWDNSFGGGTEVVVK | – |
| – | – | – | M_3: murine-derived IL-19 antibody; LC SEQ ID NO: 18, HC SEQ ID NO: 22 (antibody) heavy: QIQLVQSGPELKKPGETVKISCKASGYTFTTYGMSWVKQAPGKGLKWMVWINTYSGVPTYVDDFKGRFAFSLETSASTAYLQINNLKNEDTATYFCARRDEGFAYWGQGTLVTVSAAKTTPPSVYPLAPGSAAQTNSMVTLGCLVKGYFPEPVTVTWNSGSLSSGVHTFPAVLQSDLYTLSSSVTVPSSTWPSETVTCNVAHPASSTKVDKKIVPRDCGCKPCICTVPEVSSVFIFPPKPKDVLTITLTPKVTCVVVDISKDDPEVQFSWFVDDVEVHTAQTQPREEQFNSTFRSVSELPIMHQDWLNGKEFKCRVNSAAFPAPIEKTISKTKGRPKAPQVYTIPPPKEQMAKDKVSLTCMITDFFPEDITVEWQWNGQPAENYKNTQPIMDTDGSYFVYSKLNVQKSNWEAGNTFTCSVLHEGLHNHHTEKSLSHSPGK light: DIKMTQSPSSMYASLGERVTITCKASQDINSYLSWFQQKPGKSPKTLIYRANRLVDGVPSRFSGSGSGQDYSLTISSLEYEDMGIYFCLQYDDFPYTFGGGTKLEIKRADAAPTVSIFPPSSEQLTSGGASVVCFLNNFYPKDINVKWKIDGSERQNGVLNSWTDQDSKDSTYSMSSTLTLTKDEYERHNSYTCEATHKTSTSPIVKSFNRNEC | No |
| – | – | 105.03 +/− 1.38% | M_5: murine-derived IL-19 antibody; LC SEQ ID NO: 312, HC SEQ ID NO: 313 (antibody) heavy: EVQLQQSGPVLVKPGASVKMSCKASGYPFNDYFLGWVKQSHGKSLEWIGSINPDNDYTMSNQKFKGKATLTVDKSSSTAYMELNSLTSEDSAVYYCARYDYDWAWFAHWGQGTLVTVSAAKTTPPSVYPLAPGSAAQTNSMVTLGCLVKGYFPEPVTVTWNSGSLSSGVHTFPAVLQSDLYTLSSSVTVPSSTWPSETVTCNVAHPASSTKVDKKIVPRDCGCKPCICTVPEVSSVFIFPPKPKDVLTITLTPKVTCVVVDISKDDPEVQFSWFVDDVEVHTAQTQPREEQFNSTFRSVSELPIMHQDWLNGKEFKCRVNSAAFPAPIEKTISKTKGRPKAPQVYTIPPPKEQMAKDKVSLTCMITDFFPEDITVEWQWNGQPAENYKNTQPIMDTDGSYFVYSKLNVQKSNWEAGNTFTCSVLHEGLHNHHTEKSLSHSPGK light: DIVMTQSPSSLAMSVGQKVTMSCKSSQSLLSSYNQKNYLAWYQRKPGQSPKLLVYFASQRATGVPDRFIGSGSGSDFTLTISSVQAEDLADYFCQQHTRLPITFGAGTKLELKRADAAPTVSIFPPSSEQLTSGGASVVCFLNNFYPKDINVKWKIDGSERQNGVLNSWTDQDSKDSTYSMSSTLTLTKDEYERHNSYTCEATHKTSTSPIVKSFNRNEC | Yes (minimal (<0.025 nm) increase in the wavelength) |
| – | – | 98.59 +/− 0.42% | M_1: murine-derived IL-19 antibody; LC SEQ ID NO: 2, HC SEQ ID NO: 6 (antibody) heavy: EVQLQQSGPVLVKPGASVKMSCKASGYKFTDYFVGWVKQSHGKSLEWIGYVDPENGYTRCNQKFKGKATLTVDKSSSTAYMELNSLTSEDSAVYYCARYDYDWAWFTNWGQGTLVTVSAAKTTPPSVYPLAPGSAAQTNSMVTLGCLVKGYFPEPVTVTWNSGSLSSGVHTFPAVLQSDLYTLSSSVTVPSSTWPSETVTCNVAHPASSTKVDKKIVPRDCGCKPCICTVPEVSSVFIFPPKPKDVLTITLTPKVTCVVVDISKDDPEVQFSWFVDDVEVHTAQTQPREEQFNSTFRSVSELPIMHQDWLNGKEFKCRVNSAAFPAPIEKTISKTKGRPKAPQVYTIPPPKEQMAKDKVSLTCMITDFFPEDITVEWQWNGQPAENYKNTQPIMDTDGSYFVYSKLNVQKSNWEAGNTFTCSVLHEGLHNHHTEKSLSHSPGK light: DIVMTQSPSSLAMSVGQKVTMSCKSSQSLLSSYNQKNYLAWYQQKPGQSPKLLVYFASTRPPGVPDRFIGSGSGSDFTLTISSVQAEDLADYFCQQHERLPITFGAGTKLELKRADAAPTVSIFPPSSEQLTSGGASVVCFLNNFYPKDINVKWKIDGSERQNGVLNSWTDQDSKDSTYSMSSTLTLTKDEYERHNSYTCEATHKTSTSPIVKSFNRNEC | Yes (minimal (<0.025 nm) increase in the wavelength) |
